Results reported in paper PMC9040744 (mBio, 2022).

Target: JUNV GP1 (Junín virus GP1 glycoprotein, residues 87 to 232) (Junín virus (JUNV), strain XJ13 …, UniProt C1K9J9)
Assay: crystal structure
Settings: both partners purified

B1: Fab fragment of NAb JUN1 (Fab, V domains shown)
VH: LVQSVETGGGLVRPGNSLKLSCVTSGFTFSNYQMHWLRQPPGKRLEWIAVITVKSDNYGANYVESVKGRFAISRDDSKSSVYLEMNRLREEDTATYFCSRSGIYDGYYAYAMDYWGQGTSVTVSS
VL: SVVMTQSQKFMSTSVGDRVSITCKASQIVGTSVAWYQQKAGQSPKLLIYWASTRHTGVPDRFTAGGSGTDFTLTITNVQSEDLADYFCQQYATYPLTFGSGTKLELK
notes: also called Fab JUN1; JUN1 Fab; source: HEK293T, heavy and light chains coexpressed, purified
- binding result: binds
